In the supplement of paper PMC9170038:

Test system: MS2 coat protein
Assay: apparent KD of MS2 coat protein; designed switch direction (-1 OFF switch, 1 ON switch): -1; higher = weaker reporter binding
Method in brief: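 SNAP-549-labelled MS2 coat protein was titrated, doubling from 0.7 or 1.5 nM to 3 µM, over designed RNA switches transcribed on Illumina chips by stalled E. coli RNA polymerase. Runs were done without input, with 200 uM small-molecule ligand, or with an oligonucleotide input. Apparent KD is the per-design median over clusters of curve-fitted normalised fluorescence.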

[1] = input ligand: microRNA oligo, concentration not stated
[2] = Eterna round: R95, input ligand: microRNA oligo, concentration not stated

UGAGCUUGAGGAUAUACAAGGCGACCGUGAGGUCGAGGGUUACAUGAGGAUCACCCAUGUAGAAGGCAAGUUCU [Mat - Exclusion 2 - JL Mod - D10] (Eterna round: R97, puzzle: Exclusion 2)
apparent KD of MS2 coat protein (input ligand: FMN 200 uM): 0.46 µM
apparent KD of MS2 coat protein (input ligand: none): 0.0543 µM

UGAGUACUGCGAGGAUAUACAUGAGGAUCACCCAUGUAAUAGUGUGAGGCUUUGCCUCACACAAUGUAGAAGGCGCAGUACUCU [Mat - Exclusion NG 2 - Mod of JL - D5] (Eterna round: R96, puzzle: Exclusion NG 2)
apparent KD of MS2 coat protein (input ligand: FMN 200 uM): 0.0155 µM
apparent KD of MS2 coat protein [1]: 0.00963 µM
apparent KD of MS2 coat protein (input ligand: none): 0.0118 µM

UGAGUGCUGCGAGGAUAUACAUGAGGAUCACCCAUGUAAGCCUGUGAGGCUUUGCCUCACAGGAUGUAGAAGGCGCAGUACUCU [JL ENG2 1.17] (Eterna round: R96, puzzle: Exclusion NG 2)
apparent KD of MS2 coat protein (input ligand: FMN 200 uM): 0.0125 µM
apparent KD of MS2 coat protein [1]: 0.00919 µM
apparent KD of MS2 coat protein (input ligand: none): 0.0135 µM

UGAGUGCUGCGAGGAUAUACAUGAGGAUCACCCAUGUAAUCGUGUGAGCCAAAGGCUCACACGAAGUAGAAGGCGCAGUACUCU [Mat - Exclusion NG 2 - Mod of JL - D25] (Eterna round: R96, puzzle: Exclusion NG 2)
apparent KD of MS2 coat protein (input ligand: FMN 200 uM): 0.0125 µM
apparent KD of MS2 coat protein [1]: 0.0111 µM
apparent KD of MS2 coat protein (input ligand: none): 0.0152 µM

UGAGUGCUGCGAGGAUAUACAUGAGGAUCACCCAUGUGGAUGUCUGAGGCUUUGCCUCAGACAAUGUAGAAGGCGCAGUACUCU [JL ENG2 1.21] (Eterna round: R96, puzzle: Exclusion NG 2)
apparent KD of MS2 coat protein (input ligand: FMN 200 uM): 0.0964 µM
apparent KD of MS2 coat protein [1]: 0.0142 µM
apparent KD of MS2 coat protein (input ligand: none): 0.021 µM

UGAGUGCUGCGAGGAUAUACAUGAGGAUCACCCAUGUGGUGGUGUGAGGCUUUGCCUCACACCAUGUAGAAGGCGCAGUACUCU [JL ENG2 1.08] (Eterna round: R96, puzzle: Exclusion NG 2)
apparent KD of MS2 coat protein (input ligand: FMN 200 uM): 0.237 µM
apparent KD of MS2 coat protein [1]: 0.0333 µM
apparent KD of MS2 coat protein (input ligand: none): 0.0372 µM

UGAGUGCUGCGAGGAUAUACAUGAGGAUCACCCAUGUUUAGGUGUGAGGCUUUGCCUCACACCAUGUAGAAGGCGCAGUACUCU [JL ENG2 1.07] (Eterna round: R96, puzzle: Exclusion NG 2)
apparent KD of MS2 coat protein (input ligand: FMN 200 uM): 0.0168 µM
apparent KD of MS2 coat protein [1]: 0.00896 µM
apparent KD of MS2 coat protein (input ligand: none): 0.0128 µM

UGAGUGCUGCGAGGAUAUACAUGAGGAUCACCCAUGUUUUCGUGUGAGGCUUUGCCUCACACGAAGUAGAAGGCGCAGUACUCU [JL ENG2 1.12] (Eterna round: R96, puzzle: Exclusion NG 2)
apparent KD of MS2 coat protein (input ligand: FMN 200 uM): 0.0108 µM
apparent KD of MS2 coat protein [1]: 0.0118 µM
apparent KD of MS2 coat protein (input ligand: none): 0.0123 µM

UGAGUGCUGCGAGGAUAUACAUGAGGAUCACCCAUGUUUUCGUGUGAGGCUUUGCCUCACACGAUGUAGAAGGCGCAGUACUCU [JL ENG2 1.13] (Eterna round: R96, puzzle: Exclusion NG 2)
apparent KD of MS2 coat protein (input ligand: FMN 200 uM): 0.0115 µM
apparent KD of MS2 coat protein [1]: 0.00816 µM
apparent KD of MS2 coat protein (input ligand: none): 0.0128 µM

UGAUCAAAUGUCAGGAUAUGCUGUUGGAAACAACAGCAGAAGGGACAUGAGGAUCACCCAUGUCUUGUCGAUUU [Magic-02] (puzzle: Brourd's mod of Exclusion 4)
apparent KD of MS2 coat protein [2]: 0.0204 µM

UGAUCAGACCGAGGAUAUACAUGUAGGACGCACGUGAGUGCGUCCAUUACAUGAGGAUCACCCAUGUAGAAGGCGGUCUGAUCU [JL ENG2 1.93] (Eterna round: R96, puzzle: Exclusion NG 2)
apparent KD of MS2 coat protein (input ligand: FMN 200 uM): 0.331 µM
apparent KD of MS2 coat protein [1]: 0.133 µM
apparent KD of MS2 coat protein (input ligand: none): 0.157 µM

UGAUCUACUGAGGAUAUUAUAUCACCCGACUGAUAAGAAGGCAGUACAUGAGGAUCACCCAUGUGGGUAGCCAU [Polaris9] (Eterna round: R97, puzzle: Exclusion 6)
apparent KD of MS2 coat protein (input ligand: FMN 200 uM): 0.0508 µM
apparent KD of MS2 coat protein (input ligand: none): 0.0347 µM

UGAUCUAGCGGAGGAUAUACAUGAGGAUCACCCAUGUAGAUAUCAUGACCGUAGUCGUGUAUCGUGUAGAAGGCCGCUAGAUCU [JL ENG2 3.69] (Eterna round: R96, puzzle: Exclusion NG 2)
apparent KD of MS2 coat protein [1]: 0.0127 µM

UGAUCUAGCGGAGGAUAUACAUGAGGAUCACCCAUGUAGUAGUGAGUUGCGUACAGCUCACUUGUGUAGAAGGCCGCUAGAUCU [JL ENG2 3.59] (Eterna round: R96, puzzle: Exclusion NG 2)
apparent KD of MS2 coat protein (input ligand: FMN 200 uM): 0.0165 µM
apparent KD of MS2 coat protein [1]: 0.0101 µM
apparent KD of MS2 coat protein (input ligand: none): 0.0127 µM

UGAUCUAGCGGAGGAUAUACAUGAGGAUCACCCAUGUAUAGGCCAUCUGGUGACAGGUGGAACAUGUAGAAGGCCGCUAGAUCU [JL ENG2 3.81] (Eterna round: R96, puzzle: Exclusion NG 2)
apparent KD of MS2 coat protein (input ligand: FMN 200 uM): 0.0359 µM
apparent KD of MS2 coat protein [1]: 0.00954 µM
apparent KD of MS2 coat protein (input ligand: none): 0.0139 µM

UGAUCUAGCGGAGGAUAUACAUGAGGAUCACCCAUGUAUAGGCCAUGUGGUGACACGUGGAACAUGUAGAAGGCCGCUAGAUCU [JL ENG2 3.82] (Eterna round: R96, puzzle: Exclusion NG 2)
apparent KD of MS2 coat protein (input ligand: FMN 200 uM): 0.287 µM
apparent KD of MS2 coat protein [1]: 0.0733 µM
apparent KD of MS2 coat protein (input ligand: none): 0.0776 µM

UGAUCUUGGGUCAGGAUAUGCUGGUAUUUUUGCCAGCAGAAGGGACAUGAGGAUCACCCAUGUUCUUGGUUUUU [Magic-14] (puzzle: Brourd's mod of Exclusion 4)
apparent KD of MS2 coat protein [2]: 0.0104 µM

UGCAAGCUUAUGAGACCUCACAUGAGGAUCACCCAUGUGCUCGUCUUAUGGGCCGGCCGGCCGUUGGCCGGCCGGCC [-45.5, -68.5 kcal, A 16%] (Eterna round: R97, puzzle: Sensor, turn-off variant 1)
apparent KD of MS2 coat protein (input ligand: FMN 200 uM): 0.0166 µM
apparent KD of MS2 coat protein (input ligand: none): 0.0165 µM

UGCAAUCUUAUGAUAUCUCACAUGAGGAUCACCCAUGUGCUCGUCUUAUGUUCUGUUUUGCUGUUGUCCGGCCGGCC [1st try] (Eterna round: R97, puzzle: Sensor, turn-off variant 1)
apparent KD of MS2 coat protein (input ligand: FMN 200 uM): 0.0275 µM
apparent KD of MS2 coat protein (input ligand: none): 0.0313 µM

UGCAGACGAGGAUAUAAAUGAUAUAACAUGAGGAUCACCCAUGUACGAUCGAAUGAUCGUUUAGAAGGCGUCUGCU [E5/11-A3] (Eterna round: R97, puzzle: Exclusion 5)
apparent KD of MS2 coat protein (input ligand: FMN 200 uM): 0.0141 µM
apparent KD of MS2 coat protein (input ligand: none): 0.0155 µM

UGCAGACGAGGAUAUAGAUUUAGAUACAUGAGGAUCACCCAUGUAUACAUGUAUUUAGAUUUAGAAGGCGUCUGCA [E5/14-A2] (Eterna round: R97, puzzle: Exclusion 5)
apparent KD of MS2 coat protein (input ligand: FMN 200 uM): 0.422 µM
apparent KD of MS2 coat protein (input ligand: none): 0.886 µM

UGCAGACGAGGAUAUAGAUUUAGAUACAUGAGGAUCACCCAUGUAUACAUGUAUUUAGAUUUAGAAGGCGUCUGCU [E5/14-A3] (Eterna round: R97, puzzle: Exclusion 5)
apparent KD of MS2 coat protein (input ligand: FMN 200 uM): 0.952 µM
apparent KD of MS2 coat protein (input ligand: none): 2.22 µM

UGCAGACGAGGAUAUAGAUUUAGAUACAUGAGGAUCACCCAUGUAUAGAUGUAUUUAGAUUUAGAAGGCGUCUGCU [E5/13-A4] (Eterna round: R97, puzzle: Exclusion 5)
apparent KD of MS2 coat protein (input ligand: FMN 200 uM): 0.156 µM
apparent KD of MS2 coat protein (input ligand: none): 0.176 µM

UGCAGACGAGGAUAUGAUUAAUAAUACAUGAGGAUCACCCAUGUAAUACUGAUCUAUGGAUCAGAAGGUGUCUGCU [E5/6-B3] (Eterna round: R97, puzzle: Exclusion 5)
apparent KD of MS2 coat protein (input ligand: FMN 200 uM): 0.0208 µM
apparent KD of MS2 coat protein (input ligand: none): 0.0241 µM

UGCAUGGUAGGAUAUACGGAACAUUAGGGUUUGUUAUGUAGACAUGAGGAUCACCCAUGUAGAAGGGCCGUGCU [JL-ex2-2.14 mat747 mod] (puzzle: Exclusion 2)
apparent KD of MS2 coat protein [2]: 0.0338 µM

UGCCGGGCGUGAUCGGAUGACAUGAGGAUCACCCAUGUGCCAGCACAUAAUACCGCUCGCGGUUUUUUGCUCGUCAU [Eternabot (Original) Solution 12] (Eterna round: R97, puzzle: Sensor, turn-off variant 1)
apparent KD of MS2 coat protein (input ligand: FMN 200 uM): 0.221 µM
apparent KD of MS2 coat protein (input ligand: none): 0.25 µM

UGCCGUUGAGGAUAUACAUUGAAUUUGAUUCAUGUAAAACUACAUGAGGAUCACCCAUGUAGAAGGCAAUGGCU [Mat - Exclusion 2 - JL Mod - D63] (Eterna round: R97, puzzle: Exclusion 2)
apparent KD of MS2 coat protein (input ligand: FMN 200 uM): 0.0257 µM
apparent KD of MS2 coat protein (input ligand: none): 0.0213 µM

UGCCGUUGAGGAUAUACGUAGAAAUAGAUUCAUGUAAAACUACAUGAGGAUCACCCAUGUAGAAGGCAAUGGCU [Mat - Exclusion 2 - JL Mod - D47] (Eterna round: R97, puzzle: Exclusion 2)
apparent KD of MS2 coat protein (input ligand: FMN 200 uM): 0.221 µM
apparent KD of MS2 coat protein (input ligand: none): 0.0244 µM

UGCCUAAGAGGAUAUACAUAGAAAUAGAUUCAUGUAAAACUACAUGAGGAUCACCCAUGUAGAAGGCUUGGGCU [Mat - Exclusion 2 - JL Mod - D54] (Eterna round: R97, puzzle: Exclusion 2)
apparent KD of MS2 coat protein (input ligand: FMN 200 uM): 0.155 µM
apparent KD of MS2 coat protein (input ligand: none): 0.0276 µM

UGCCUACAUGAGGAUCACCCAUGUGAGGAUAUCCUGCGAGGAUCAAAAGAUCCUCGUGGGAGAAGGCGCCUGGA [Omei Ex1 B5] (Eterna round: R97, puzzle: Exclusion 1)
apparent KD of MS2 coat protein (input ligand: FMN 200 uM): 0.0199 µM
apparent KD of MS2 coat protein (input ligand: none): 0.0162 µM
